Source: a protein production outcome set (Wang et al. 2014)

Test: label from the status in PepcDB records
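Note: failed if final PepcDB status was selected cloned or expressed and not failed if soluble or beyond.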

| Sequence | protein production |
| --- | --- |
| MRKIQFPFCILDVIQRKGVRVLYIIIPIVVLLLIFLFAGYVKAPPNKAAIITGLSKNPRVLLGKSGFKVPFFERVDWLEVGQININVVTEDYIPTKDFINIKVDAIAQVAMEVSNNQVSAVAMRNFLNRKADDVRSMITESLQGNLREIIGTMDLKSICQDKAKFSQEVKQNAEQDMKELGIRILSFNVQNVNDKDGLIDDLGIDNRETIRKTARVAKANADRDVEVASAEAANKASEAKVAAELAIAQRNNDLEIRKAELKIGEDTKKAEADAAYEIQKQTSRKTVEIREQEADIARREKEIELQTKEAEVAEKKLDAEIRKKAEADKYAEMQNADAELYRRQKDAEAQQYEAEKEAAAIRAKGLAEAEAIRQKGLAEAEALDKKAEAMKKYGQAAILEMIVGVLPDIAKSVAEPLSAIDKVTVIGGNSDGVSDLAGNVPIIMGKVMESVKEATGIDMNEIIRAETFEGKTTKNINFTGLDQVGEEIAQGAAQSVSETLQETE | failed |
| MRKKEENLNTASGLRIAMILLGIAVTPVLLSSSSLGNQLSSSSLISVVLLGGVILTLLSAITISVGEKARLPTYGIVKYSFGEKGAIAINILMAISLFGWIAVTANMFGHSVHDLLAQHGLEVPLALLVAAGCVIFVASTAFGFTVLGKIAQVAVPVIALVLCYILYVATHTEVAVPAAIVEMNTGVAVSTVVGTIIVLVATLPDFGSFVHNRKHALIAAGVTFLVAYPLLYWAGATPSAISGQGSLLGAMAVFGAVLPAALLLIFACVTGNAGNMFQGTLVVSTLLTRFPKWQITVALGILSAIVGSMDIMAWFIPFLLFLGIATPPVAGIYIADFFLYRRNGYQESVLAQESQIKVLTFAAWIIGAAVGFMTVKGLFTLTTIPSVDSILVACIAYAILSRASQHR | failed |
| MRKSDREAFLSSVLGNEQPPAHLARTVIEEKLRNAIIDGSLPSGTALRQQELATLFGVSRMPVREALRQLEAQSLLRVETHKGAVVAPLITEDAVDAYALRILLESEALRLSIPLLDADDLAAAASYIEQLEVETDFGQIGRLNRMFHLSLYAKTHNKRLMRLVEEGLNEEERFLRFNLSSMGLGKLSQDDHWQLLRLAEQKAVEPCVEALQYHLNRGVQAVTQYLQSQKAGNVKPARTKKNTPA | not failed |
| MRKSKLTFIATFLILLFLSMPYKAHAASQTPITRADAEQRALTMINLNWTYSKSKNGVLPSAYSGSITAPSQFRGIENVVATGIPYCWGGFDGLNSSSYGESWTNFTDAVNKGAFVGNVKSSSYGHITGTAGLDCSGFVQATFNIKDYKLSTSTIFNQYFTKIDIKDIKHMDILNLPGNHVVIFDKWGTRNGVNGAYTYEATPDTTYGGIQGTKQYFMSMNTVSQYIPGRYVNIKEVAYVQVINASSLNIRTGPSTSYPIIGTISQNQIAEVTGYSSDGTWYKIKINGIEGYASSTYLTYVNNLEHHHHHH | failed |
| MRKTWPLLTLLLCTCASAQLRADIAHNTPPGQATMQVYDGEKVLFQATTPGLNAVTASKFSPDGRWLLNIADGSGYVQLWDTAKGERVKTFLSVYFRIFGADFTPDSERLLLDFSGSKERADPRRPAYFPSPSLWNLATLERISFVYNDKRESFYNGKVTFSQDGERMAFVRPNAYSSGPASVWNAKTGAYIATISRLPYPKGAAQTGGAGAMDARLSPDGQRVLVRYVDNRLAEYDASTGTLLKVRGKFSAADAGAELERFAREGR | failed |
| MRKTYKYRLYTCERNKHLVESIELASVVWNHFVALTRRYYEIYGEYPGYYALKKHLTKLKQRDKGHWYDLNSQALQNVIERLDQAYQRFFEIDSAGRPGFKKREKYTSFTLTQTGWKLLGGNRVRIQNHNYKFVKSRPIKGEIKTVTIKRDACGYLWICFSVEKEPPTPELPRTGNAVGLDFGLKDFLVTSDGDRIQAPEPLQESLEEVQDLHKKLSRKERGSNNRKEAKRRLAKKYRQIDNQRKDFHFKLARRLFSRYDVVCIEELNVGAMKELWGRKVSDLGFASFVKILEHVAQKEGKEVRKIDRWFPSSQTCSDCSHRYEDLSLEERTWTCEECGSLHDRDLNAARNVLERALSSAEAGVRPSGAAARVARSS | failed |
| MRKYEIMYIIRPGVEEEAQKALVERFAGVLTNNGAEIINTKEWGKRRLAYEINDLREGFYMILNVNANAEAINEFDRLAKINEDILRHIVVKEEEK | not failed |
| MRLAYVKNHEIYGEKLLGLTLRERIEKTLQRAGFDVRFFDELSLEEAEDYLIILEPVLILERDLLLEGRKILVSDGFTVGYFFGGDFRTVFDGNLQSSIEKYLSLNNLESYEIWAIKLSNDNLKTAEKLLLSSLIKAKRTGLKPAYYDGWIAREINRKVSLRISRLLADTSVTPNQITVFSFFLSLVGSALFLLNSYLTTLLAGVIIQLHSIIDGCDGEIARLKFMESKYGAWLDGVLDRYSDFIIVFSITYVLSASNPVYWIIGFLAAFASLMIAYTGDKFVAAYMRTYSPEGFAIPITRDFRLLIIFACSVVNLPSLALVIIALLGNFEALRRIVALRSYTN | failed |
| MRLILNLIWLFFGGIWLALGYVFFGIIACIFIVTIPAGIASFRMANYALWPFGRTVVRNPKAGGFSALSNGLWFIIAGLWLAIGHLTTAAAQAITIIGIPLAIANIRMIPVTCFPFGKEIYDSNRIPFGYEPMVKF | failed |
| MRLILSQCLANLSVRFLMNRNSYNKIAHLWNVARNGFFGREREYLDAILSVAPIGSTILDLGCGTGRPMAEYIVSRGRCVLGVDQSEEMLRLARQKLPHEQWVLSSIESYEPVEGYHGALLWDSLFHIRRTEHELIVSKVVRGLPSGGRLMLTVGGSAHPEFTDFMYGEEFYYDSNTPQETETFLQRLSCRMVIGEYMNLPDGGRDKGRYAIVAEKILEHHHHHH | failed |
| MRLIVVGIAEDITEKKQLETELQRLATTDVLTQSSNRRHFFECANREFEQARLQGSSLAFLLLDIDDFKVINDTYGHPEGDIVLQRIAESGRAALRRGDLFGRIGGEEFAAVFPGCTADMARQVAERLQREIQRQNFSHQGQTFTITVSQGLTGLLAEDESLDNLFARADSAMYEAKRQGKNRIITGLEHHHHHH | failed |
| MRLKKQLLGSLLVVIVVLSIAVATTKQQKGFVTGQPTGALNLSDILDSEELGEYHLMSAAIITGNTVDFSGLGAGPDDPFEIASITKIFTGELLRLQIERGEITESTAVGDVLGERVADSLIRDITVEELANHTSGLPRLGNVGLRPFMATFFDKNPYKDLSADRVISISTTSKLNSRGEFHYSNLGFALLGQVLARNAGLTFDQLLDRDLLAPLNLNNTKLMTPESLAQDAPQGFSTPGKQVEAWEMDGFLPAAGLRSTARDMAVFCQYLFTKGPAPFTWQSLESAPEIVWHNGESFGYSSVLFFNTATTTAIFVAADVATSVFPIGHELLMANSTRQESK | failed |
| MRLLIAGRLFFGLGLALWALGAGPSPARAAGMSLIRDAEIENTIAMIATPLLRAASIGDRAITFRLINDDTINAFATTEMRVFVYTGLFLKTEGPDELKGVIAHEMGHLAGGHLLRMKDEMANASMTALVGMLAGAAAGIASGRGDVGSAVMMGTNQAAMRGFLTFSRTQESSADSFAMRMLDATGQSAAGMLKFFRKLGDQEALITASQDPYVRTHPLTRDRITAVADHVAHSRFSDVPPSPAEVLAYQRAKAKLMAFLKSTGATLAAYPATDRSVAARYARAIAYYRAGDLGRALPLIDGLIAEDPNDPYFEELRGQMLFENQRLREALGSYTKAARLAPTEPLILVSLAHVQVELGDRPLLENALTNLNAALGLDPTNSFAWRQMANASGKLGDEAMAAYYLAEMALSQGDPREALAHAKRAEGRIPKGSPQGLRLQDLIAEAERQKKRQEDRD | failed |
| MRLMIIFDLPVETSEERKEYRKFRKNLINEGFIMIQYSVYVRVCVNKKSAEFTEKRIESFLPSKGVVQSLILTEKQYNDMHFLLGKKIKEVRNSAERTIIL | failed |
| MRLSPAPLKLSRTPALLALALPLAAALAFSDETLDKVPKSEGYCSRILRAQGTRREGYTEFSLRVEGDPDFYKPGTSYRVTLSAAPPSYFRGFTLIALRENREGDKEEDHAGTFQIIDEEETQFMSNCPVAVTESTPRRRTRIQVFWIAPPAGTGCVILKASIVQKRIIYFQDEGSLTKKLCEQDSTFDGVTDKPILDCCACGTAKYRLTFYGNWSEKTHPKDYPRRANHWSAIIGGSHSKNYVLWEYGGYASEGVKQVAELGSPVKMEEEIRQQSDEVLTVIKAKAQWPAWQPLNVRAAPSAEFSVDRTRHLMSFLTMMGPSPDWNVGLSAEDLCTKECGWVQKVVQDLIPWDAGTDSGVTYESPNKPTIPQEKIRPLTSLDHPQSPFYDPEGGSITQVARVVIERIARKGEQCNIVPDNVDDIVADLAPEEKDEDDTPETCIYSNWSPWSACSSSTCDKGKRMRQRMLKAQLDLSVPCPDTQDFQPCMGPGCSDEDGSTCTMSEWITWSPCSISCGMGMRSRERYVKQFPEDGSVCTLPTEETEKCTVNEECSPSSCLMTEWGEWDECSATCGMGMKKRHRMIKMNPADGSMCKAETSQAEKCMMPECHTIPCLLSPWSEWSDCSVTCGKGMRTRQRMLKSLAELGDCNEDLEQVEKCMLPECPIDCELTEWSQWSECNKSCGKGHVIRTRMIQMEPQFGGAPCPETVQRKKCRIRKCLRNPSIQKLRWREARESRRSEQLKEESEGEQFPGCRMRPWTAWSECTKLCGGGIQERYMTVKKRFKSSQFTSCKDKKEIRACNVHPC | failed |
| MRLVERHIVKTNHQFYKEIDDLAWRSKNLYNYVNYLVRQSFIFDGKYLNNAAIFHLVKHHESYTALPRKVSNQVLMVLHRNWKSFFETHKAYKQNPSKFKGCPKLPKYKNKEKGRNIVIYELGAISKPLLKQGVIKLSQTEIQFPTKASNIQQVRLIPQCGQYVVEVVYLQDATPQQLNPDWVAGIDIGLDNLAALTSNKPGFKPVLVNGRPLKAINQQYNKAKARLQSQLKGNAKTSRRIQALTCKRNNRIDNYLHNASRWIINHLASAGIGTLVIGKNDQWKQEINLGTTTNQNFVSIPHARFIEQLKYKAELVAMTVLINEESYTSASSFLDLDPIPVYQEGVKHSFSGKRIKRAWYQSANGRFIHADINASLNITRKVVPAAFSLGIAGIAVCPSRITPGKVAI | failed |
| MRLVQLSRHSIAFPSPEGALREPNGLLALGGDLSPARLLMAYQRGIFPWFSPGDPILWWSPDPRAVLWPESLHISRSMKRFHKRSPYRVTMNYAFGQVIEGCASDREEGTWITRGVVEAYHRLHELGHAHSIEVWREBELVGGMYGVAQGTLFCGESMFSRMENASKTALLVFCEEFIGHGGKLIDCQVLNDHTASLGACEIPRRNYLNYLNQMRLGRLPNNFWVPRCLFSPQE | not failed |
| MRLYERSSCLLQPPDYSLMNDSTDAQDVSQARVWLWAARPKTLGAAVAPVLVGTGMALEAGAWHLLSALLALAGAVLIQVGVNYHNDYADYVQGADTQERVGPLRVTQAGLVAPQTMRRATILVFGLAVMAGLYLIARGGWPILAVGVASIGAAIWYTAGRYSLAALGLADVFVFVFFGPVAVGGTYYVQALSLPTEVLLAGGGPGLLSIGILLVNNVRDVAEDRRAGKRTLVVRFGRRFGVAAYGACLVGALLLAGLLAAGLFGTTPHPWAALPLGLLPLAIGPIRRLSETTDPEKLNPLLGATGRILVLWALLFAVGWNL | failed |
| MRLYKIGLVLLLWVFAVTAQAELRFPALSGRVVDDAQMIEPTISALLTRQLQAHEQATGEQLVVVTLPDLQGASIEEFGYQLGRHWGIGQKDKNNGALLIVARDERKLRIEVGYGLEERLTDAQASVIINQVITPAFKTGQFSKGISDGVSAMLLVLGGTPLDEPTTVYDSGDSSSQDDFVQRHPLLFIFLVLLFILVIMVAQALGLITTTSGRGGGGGGGFGGFGGGSGGGGGFSGGGGSFGGGGSSGGWLEHHHHHH | failed |
| MRMGVKDFAPSWFASVMGTGALALVSKSYSFKLPILEAFSKFLTYLNTIIFFVLLIPWLLRWIKYPSEAKKDLYHPVTSHFYGTMPIAMTIVAVNLAMFGYKEIALPLWILGSILVVIFAFLIPYLFFISEGVDVKTITPAWFIPPVGLIVIPLTSLPFVPSSVMWREVFIVLNYFGFGAGFFIYLALFAIVMRRFITHELLPPIMAPAVWINLGPLGAGAVALLNLAKIMPIAKSAFKAFAFILWGFGLWWLIMAILMTLHYLKNLHLPYSLAWWAFIFPLGAYVSATYNVGISIGITAMIEFGFALYWFLLALWLVTGIKTLVHDFSS | failed |
